Reference: patent publication US20070184522A1, “Cell death modulation via antagonists of Fasl and Fas activation” (University of Pittsburgh of the Commonwealth System of …, priority 2004, published 2007)

B1: alpha subunit of Met (AlphaMet), amino acid residues 1 to 306, His-tagged (receptor, mouse)
chain: MKAPTVLAPGILVLLLSLVQRSHGECKEALVKSEMNVNMKYQLPNFTAETPIQNVVLHGHHIYLGATNYIYVLNDKDLQKVSEFKTGPVLEHPDCLPCRDCSSKANSSGGVWKDNINMALLVDTYYDDQLISCGSVNRGTCQRHVLPPDNSADIQSEVHCMFSPEEESGQCPDCVVSALGAKVLLSEKDRFINFFVGNTINSSYPPGYSLHSISVRRLKETQDGFKFLTDQSYIDVLPEFLDSYPIKYIHAFESNHFIYFLTVQKETLDAQTFHTRIIRFCSVDSGLHSYMEMPLECILTEKRRKRHHHHHH

Legend:
Hepa 1-6 cells = assay: Fas-induced apoptosis in Hepa 1-6 cells (LDH activity assay); type: cell-based, mouse; details: for FasL induced apoptosis: serum deprived Hepa 1-6 cells, crosslinked mouse Fas ligand 1 μg/ml overnight, LDH
Description: For FIG. 4a, Jurkat cells (1.5×10^5) were overnight treated in triplicate with 5 ng/ml of crosslinked human Fas ligand with or without 5 μg/ml of recombinant AlphaMet or 1 μg/ml of the indicated polypeptides. Percent apoptosis was determined by Trypan Blue staining using a hemocytometer. The data are representative and were repeated at least four times. […] The 17 kDa fragment of cleaved Caspase 3 is visualized by this antibody. The blot was reprobed for β-actin as a loading control. For FIG. 4c, serum deprived Hepa 1-6 cells (3×10^5) were overnight treated with 1 μg/ml of crosslinked mouse Fas ligand with or without AlphaMet or the indicated polypeptide. Media were collected and centrifuged to pellet the dead cells. […] The data in FIG. 4c represents three independent experiments.
Apoptosis assay. Pre-washed Jurkat cells in RPMI 1640 medium containing 1% FBS were inoculated in 96-wells at a density of 10^5 cells per well. Apoptosis was induced by cross-linked human Fas-ligand (R&D Systems) at a concentration of 0.5 ng/ml or Anti-Fas (human, activating) clone CH11 (Upstate biotechnology) at a concentration of 500 ng /ml. Hepa 1-6 cells were overnight starved before induction of apoptosis. The apoptosis in Hepa 1-6 was induced by anti-mouse Fas antibody Jo2 (200 ng/ml) or human recombinant Fas-ligand. The extent of cell viability and apoptosis was determined by several methods such as Trypan Blue stain, flow cytometry, LDH assay, and Hoechst staining.

[1] = tested on: liver (hepatocyte apoptosis); assay: Jo2 (Fas agonist) induced liver apoptosis in Balb/c mice; type: in vivo; details: for percentage of apoptotic cells by TUNEL staining: Balb/c mice liver, Jo2, AlphaMet 100 micrograms or YLGA polypeptides 300 micrograms per mouse; for enzymatic activity of caspase-3 in liver lysates: compared to Jo2 only group
Description: For FIG. 5a, Balb/c mice (10 per group) were injected with Jo2 (2.5 μg/g of mouse body weight) in the presence of AlphaMet or polypeptides as indicated, and analyzed for the extent of hepatocyte apoptosis and liver damage by immunohisological and biochemical techniques. The percentage of TUNEL positive was determined in multiple liver lobes of each liver in random fields counting at least 500 hepatocytes in a double-blind manner. Frame A: Normal mouse liver; Frame B: Jo2 treated mouse liver; Frame C: Jo2 plus AlphaMet treated mouse; Frame D: Jo2 plus YLGA 12 mer; Frame E: Jo2 and YLGA tetramer treatment; Frame F: Jo2 and YLGA mutated AlphaMet, respectively. These studies were repeated three times with identical outcome. FIG. 5b graphically presents the quantification of hepatocyte apoptosis TUNEL positive nuclei. The data were analyzed by One-way ANOVA and P<0.05 was considered significant. For FIG. 5c, an equal amount of livers were subjected to Caspase 3 activity assay using DEVD-AFC as a substrate and DEVD-CHO as an inhibitor, as recommended by the manufacturer. The data are the mean and SE and were repeated in three independent experiments. The data were analyzed by One-way ANOVA and P<0.05 was considered significant.
Animal studies. Male Balb/c mice weighing 30 grams were purchased from Jackson Laboratory and used according to an IACUC approved protocol. Induction of liver apoptosis and determination of Caspase 3 activity and histological evaluation were performed as described previously (Wang et al., 2002). Animals (10 per group) were anesthetized by isoflurane and injected with Jo2 (Pharmingen 2.5 microgram/gram body weight) with or without AlphaMet (100 micrograms recombinant AlphaMet or 300 micrograms of synthetic YLGA polypeptides) in a total of 100 micro liters of saline per mouse. Control groups (N=10 per group) consisted of saline only, Jo2 only, and Jo2 plus mutated AlphaMet or scrambled polypeptide. During the experiment which lasted approximately 6 hours, animals were closely monitored every 10 to 15 minutes and if they appeared to be moribund were immediately sacrificed and liver tissue and was removed for biochemical and histological studies.
It is well known in the literature that the liver is one of the most sensitive organs to Fas mediated apoptosis. Injection of the Fas agonist Jo2 antibody, which causes mice to experience Fas aggregation resulting in massive hepatocyte apoptosis, fulminant hepatic failure, and death within hours. This model was used to test if AlphaMet and the YLGA polypeptides could protect livers from Fas-induced apoptosis. Given the fact that AlphaMet blocked Fas trimerization and Fas micro-aggregation, and the fact that Fas oligomerization is essential in Fas signaling, it was reasonable to suspect that AlphaMet could block the Fas mediated apoptosis in vivo. Balb/c mice were used in these experiments. Groups of animals (n=10) were injected systemically with Jo2 ([…] of body weight) with or without purified recombinant AlphaMet, synthetic 12 mer YLGA polypeptide (HHIYLGATNYIY, SEQ ID NO:26), or their control counterparts (N-terminally truncated AlphaMet, YLGA mutated recombinant AlphaMet or scrambled 12 mer polypeptide) as described in the materials and methods. Mice were sacrificed within 6 hours or sooner if they were moribund and their livers were subjected to biochemical determination of Caspase-3 activity and histological analyses (i.e. TUNEL staining).

| Molecule | FasL induced apoptosis (Hepa 1-6 cells) | percentage of apoptotic cells by TUNEL staining [1] | enzymatic activity of caspase-3 in liver lysates ([1]; Balb/c mice) | apoptosis induced by the Fas agonist Jo2 (Hepa 1-6 cells; Hepa 1-6 cells) | resistance to Fas killing of stable cell lines expressing the protein (Hepa 1-6 cells; Hepa 1-6 stable lines versus control vector clones) | liver hemorrhage (gross and microscopic) ([1]; Balb/c mice, Jo2 injection, within 6 hours) |
| --- | --- | --- | --- | --- | --- | --- |
| HHIYLGATNYIY [12 mer] | significantly inhibited FasL induced apoptosis | 25% | significant reduction | – | – | – |
| YLGA [YLGA 4 mer] | significantly inhibited FasL induced apoptosis | 40% | – | – | – | – |
| B1 | significantly inhibited FasL induced apoptosis | 18% | significant reduction | efficiently inhibited | dramatic resistance to Fas killing | little or no sign of hemorrhage |
